Assays:
Experiment in all cases: EMSA
[1] = test system: TbLa (wild type) (Trypanosoma brucei); conditions: 1 mM Mg2+; apparent Kd from Hill fit; native tRNA modifications except queuosine (from TbTGT2Δ cells); 50 mM HEPES pH 7.5, 1 mM MgCl2, 5 mM KCl; on ice 30 min; ~0.6 nM tRNA, 10 µl; 6% native PAGE
[2] = test system: TbLa LaMΔ (Trypanosoma brucei); conditions: native tRNA modifications except queuosine (from TbTGT2Δ cells); 50 mM HEPES pH 7.5, 1 mM MgCl2, 5 mM KCl; on ice 30 min; ~0.6 nM tRNA, 10 µl; 6% native PAGE
[3] = test system: TbLa RRM1Δ (Trypanosoma brucei); conditions: native tRNA modifications except queuosine (from TbTGT2Δ cells); 50 mM HEPES pH 7.5, 1 mM MgCl2, 5 mM KCl; on ice 30 min; ~0.6 nM tRNA, 10 µl; 6% native PAGE

In the case of native mature tRNATyr lacking Q34, the Kd [1] is reported as 216 nM, the Kd [2] is reported as 855 nM and the Kd [3] is reported as 446 nM.

— paper PMC12242769
